How the values were obtained:
[1] = target: soybean agglutinin (SBA), GalNAc-specific lectin (soybean) (UniProt P05046); experiment: single SBA panning step, 8×10^10 aglycosylated phage applied
[2] = target: soybean agglutinin (SBA), GalNAc-specific lectin (soybean) (UniProt P05046)
[3] = target: soybean agglutinin (SBA), GalNAc-specific lectin (soybean) (UniProt P05046); experiment: single SBA panning step, 8×10^6 cfu glycophage alone
[4] = target: soybean agglutinin (SBA), GalNAc-specific lectin (soybean) (UniProt P05046); experiment: single SBA panning step, glycophage with 10^2-fold excess of aglycosylated phage
[5] = target: soybean agglutinin (SBA), GalNAc-specific lectin (soybean) (UniProt P05046); experiment: single SBA panning step, glycophage with 10^4-fold excess of aglycosylated phage
[6] = target: soybean agglutinin (SBA), GalNAc-specific lectin (soybean) (UniProt P05046); experiment: single SBA panning step, 8×10^6 cfu glycophage mixed with an equal amount of aglycosylated phage

Chain of UniProt P05046 (P05046 33-285 limits assumed): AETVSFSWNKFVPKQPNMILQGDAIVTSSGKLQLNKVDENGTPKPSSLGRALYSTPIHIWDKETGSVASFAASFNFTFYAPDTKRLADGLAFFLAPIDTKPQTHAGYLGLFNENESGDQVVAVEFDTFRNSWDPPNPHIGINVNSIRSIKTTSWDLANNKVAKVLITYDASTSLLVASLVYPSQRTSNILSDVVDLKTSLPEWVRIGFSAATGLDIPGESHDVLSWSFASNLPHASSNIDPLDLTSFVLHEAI

| Substance | infectious particles bound to SBA [1] | phage titer in the eluate [2] | percent of phages recovered [3] | phages recovered [3] | percent of phage bound by SBA [4] | phage bound by SBA [4] | percent of phage bound by SBA [5] | phage bound by SBA [5] | fold increase in phage titer in the eluate [2] | percent of phage bound by SBA [6] | phage bound by SBA [6] |
| --- | --- | --- | --- | --- | --- | --- | --- | --- | --- | --- | --- |
| non-glycosylated AcrA-g3p fusion protein from TG1 pglmut cells (in lysates and displayed on phage) (from UniProt P69168 19-424) | 38000 cfu | 1000 cfu/ml | – | – | – | – | – | – | – | – | – |
| glycosylated AcrA-g3p fusion protein from TG1 pgl+ cells (in lysates and displayed on phage) (from UniProt P69168 19-424) | – | 1e+06 cfu/ml | 96% | 7.7e+06 cfu | 93% | 7.4e+06 cfu | 79% | 6.3e+06 cfu | 1000 fold | 96% | 7.8e+06 cfu |

Source: US20110039729A1
